Measurements taken from patent US20200317802A1.

Assays:
[1] = biological target: activated human MMP-1 (human) (UniProt P03956)
[2] = biological target: activated human MMP-14 (human) (UniProt P50281)

activated human MMP-1 (human), sequence (P03956 100-469 limits assumed): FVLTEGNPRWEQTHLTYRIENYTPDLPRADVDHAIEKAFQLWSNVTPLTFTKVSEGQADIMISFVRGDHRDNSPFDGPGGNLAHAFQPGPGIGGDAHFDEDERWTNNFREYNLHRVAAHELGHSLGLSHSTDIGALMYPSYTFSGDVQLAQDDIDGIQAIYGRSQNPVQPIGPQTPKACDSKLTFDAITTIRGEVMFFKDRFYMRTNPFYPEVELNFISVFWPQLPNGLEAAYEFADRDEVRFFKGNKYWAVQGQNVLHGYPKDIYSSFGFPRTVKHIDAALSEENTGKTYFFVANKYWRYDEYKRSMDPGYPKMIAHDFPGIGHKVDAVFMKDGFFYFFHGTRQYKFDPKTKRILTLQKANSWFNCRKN

IC50 (read off the curve) (human MMP-1 activity, FRET peptide substrate) [1]: 0.9 nM
IC50 (read off the curve) (human MMP-14 activity, FRET peptide substrate) [2]: 6 nM
Substance: TIMP2 (from UniProt P16035 27-220)
